Assay results from publication PMC6611172 (ACS chemical biology, 2018).
Ends that are not written are not given here.

Key:
[1] = target: GST-tagged GAS41 YEATS (residues 1–148) (human) (UniProt O95619); test: ITC
[2] = target: GAS41 YEATS domain (residues 13–158), His6-tagged, 15N-labeled (human) (UniProt O95619); test: NMR titration
[3] = target: full-length GAS41, Avi-tagged, mono-biotinylated (human) (UniProt O95619); test: BLI
[4] = target: GST-tagged GAS41 YEATS (residues 1–148) (human, UniProt O95619 1-148); test: ITC
[5] = target: full-length GAS41, Avi-tagged, mono-biotinylated (human, UniProt O95619 1-227, biotin (mono-biotinylated on the Avi tag by BirA)); test: BLI
Sequence of full-length GAS41, Avi-tagged, mono-biotinylated (O95619 whole entry): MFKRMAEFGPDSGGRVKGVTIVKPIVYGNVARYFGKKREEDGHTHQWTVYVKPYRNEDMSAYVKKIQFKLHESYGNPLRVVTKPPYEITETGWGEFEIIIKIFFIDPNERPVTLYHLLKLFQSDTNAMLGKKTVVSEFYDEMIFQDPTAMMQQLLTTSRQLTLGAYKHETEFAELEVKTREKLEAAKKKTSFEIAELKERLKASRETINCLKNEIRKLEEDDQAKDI

Sequence of GAS41 YEATS domain (residues 13–158), His6-tagged, 15N-labeled (human) (O95619 13-158): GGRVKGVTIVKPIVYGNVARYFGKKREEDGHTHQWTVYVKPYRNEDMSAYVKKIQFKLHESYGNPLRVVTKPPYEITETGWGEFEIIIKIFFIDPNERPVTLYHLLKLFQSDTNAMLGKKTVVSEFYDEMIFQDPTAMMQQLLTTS
Sequence of GST-tagged GAS41 YEATS (residues 1–148) (human) (O95619 1-148): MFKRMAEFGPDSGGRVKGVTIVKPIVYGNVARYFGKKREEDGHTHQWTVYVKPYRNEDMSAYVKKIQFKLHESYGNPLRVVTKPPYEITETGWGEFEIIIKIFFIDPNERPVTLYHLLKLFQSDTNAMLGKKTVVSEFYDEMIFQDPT
Sequence of full-length GAS41, Avi-tagged, mono-biotinylated (human) (O95619 whole entry, the tested form may be a part): as the sequence (O95619 whole entry) above
Sequence of GST-tagged GAS41 YEATS (residues 1–148) (O95619 1-148): as the sequence (O95619 1-148) above

| Molecule | Kd [1] | Kd [2] | Kd [3] | stoichiometry N (peptide : YEATS domain) [1] | also measured |
| --- | --- | --- | --- | --- | --- |
| H3K27cr peptide | 23.4 µM | 34 µM | – | – | – |
| H3K27ac peptide | 39 µM | 58 µM | 81 µM | 1 | – |
| H3K14ac peptide | – | 720 µM | – | – | – |
| tripeptide AKacA | – | 1000 µM | – | – | – |
| ATK(Ac)AARK(Ac)SAP [H3K23acK27ac peptide] | – | – | – | – | Kd [4]: 13.6 µM; Kd [5]: 5 µM |

Further lines, with some results ahead:

| Kd [1] | Kd [2] | Kd [3] | stoichiometry N (peptide : YEATS domain) [1] | Molecule | also measured |
| --- | --- | --- | --- | --- | --- |
| – | 106 µM | 36 µM | – | H3K18ac peptide | – |
| – | > 1000 µM | – | – | H3 peptide with succinylated K27 (H3K27su) | – |
| 12.5 µM | – | 3.2 µM | 0.5 | H3K18acK27ac peptide | – |
| 11.1 µM | – | – | 0.5 | H3K23crK27cr peptide | – |
